Data as given in the DeepSol protein solubility set.

Assay: soluble on expression in E. coli; label from the status in PepcDB or PDB records
With “MGSDKIHHHHHHMTRTTLEAGVTRRDVLKVAGLTGLGAALYASGLERWLPRALTAEATNQVPFYGKYQAGILTPPQNHVQIVAFDVQTTRRDELIDLLKRWTRACARLTAGLPLGDSDSLYVPPEDTGEAEGLSASHLTFTFGCGHGLFADDRFEIGHKRPNLLRELPAFDLDQLDPKWAGGDLVVQICADDQQVVFHALRNLTRIGRGIVKIRWTQTGFQRSKAADATGGTPRNLFGFKDGTGNPDVSQPAIRNKHLFYQWQDGSPWMTNGSFLVVRRIQMHLEVWDRTILKEQERTFGRDRASGAPLGSKDEFASVTPSKRTARGEASLPKDSHTAVAHGSGEAQLLRRSYSYQAGINETTGALDAGLLFLSYQRSPEQFITIQRRLAASDRLNEYITHRGSALFACFGGIQKGGYIGDALFA” the “soluble on expression in E. coli” value was “not soluble”.
With “MGSDKIHHHHHHMAENFLTQDEVDALLNFENGSKHQQTAQKENEVSYPGGVRPYNMATQERIVRGRMPALEIINARFANSLQIGLYNFLRRGVDISAGSIKTIKYSEFTRSLVVPANINLVSMKPLRGTALFTIDPNLIFLIVDNMFGGDGRFHTRVEGREFTLTEQGIIRRLLDVLFEHYEKAWQSVYPVKFEYIRAEMNPQFANIVTPTDIVVASAFELNLGGNRGEFYTCIPYTMLEPIRDLLNNSMQEDRAEVDKNWIKSLTRQVQGAEIEIIANLGQTQVTLHQILNMQEGDVIALDIPDTVVAIANNVPIMDCHYGILNGHYALKVKTVRSPNETD” the “soluble on expression in E. coli” value was “not soluble”.
With “MGSDKIHHHHHHMYETFEKLPDGKKEQIIQVCIEEFIENGYQNASTNTIVKRLGISKGVLFLYFKNKKNLYLYLVEYIMEFFIQDYFEEYAGGPVININVFDNLGEYYKELMQKKPELFLFMLQAFVNTPAELKEEIDARHNQAHDSLFRHMNNEGFRPGIDIHLVDDLLHMVSYYVGQLITNDLKGKDLNTIIKDEINKNIVRYAELFAKYVDILKYGVYER” the “soluble on expression in E. coli” value was “not soluble”.
For “MSLAYTKKKYTPKTKEQIKEETKEIMDKVLTDITKYYRSPEDMLELANFMAKFSNYSPKNMQLIRSQFENAYACANFKAFKDAGFHVNKGETAMKVFHPYVKEYVRDPRTKLAIPLGKLTEEQKKQVKNGELKVEKQTNYYLKATAFDISQTNAKPEDLPKIFPNRQFNFEINDENKELLKIGIQALAEKENIKIKTMGQGALVKELGNVHGAYVQVLDSSYSQIVMNPRNTETNELSVAIHELAHAKLHGNKIDPLEHTPTKEFEAELTSYIVCKHYGMDTSESAVPYIAQWTKNGQDIEEKDKSIMRVHETASSFINTIDKKISELQREGHHHHHH”, the “soluble on expression in E. coli” value was “soluble”.
In the case of “MNKETLQLFRTLTELQGASGFEHDVRRFMKQELSKYADEIVQDGLGSVFGLKKGDETGPRVLVAGHMDEVGFMVTQITKNGMLRFQTLGGWWSQVLLAQRVQVMTKNGPVIGVVGSIPPHLLSDAQRAKPMDIKNMLIDIGADSYEDAIEIGVKPGQQIVPICPFTPMANEKKIMAKAWDNRYGCGLAIELLKELKDETLPNTLYSGATVQEEVGLRGAQTAANMIQPDIFYALDASPANDASGDKTQFGQLGKGALLRIYDRTMVTHRGIREFILDTAETNNIPYQYFISQGGTDAGRVHTSNSGIPSAVIGVCARYVHTHASILHVDDYAAAKELITKLVRTTDKTTLETIKNNA”, the “soluble on expression in E. coli” value is reported as “not soluble”.
With “MEPKLSKDTIIAAAFSLLEKSPTLEQLSMRKVAKQLGVQAPAIYWYFKNKQALLQSMAEAIEEHFQEPALCGEWYSDLLAFMENYYDLYQQFPCAVAIEIQTVPAYPQRLRHLNQMMGILREAGFSPEMTHLAVTSLQHLLFGMIMDATEEKQLVSQVLNGDDYLKEQVLHMKQYVSDNELTYMEESIQFRHSIHQKSAFIQAVKTYLDGLQADNTSSSK” the “soluble on expression in E. coli” value was “soluble”.
With “GSHNLACPTPKEDGLAQQQTQLNLRSLLVNPEGPTLMRLNSVQSSERPLFLVHPIEGSTTVFHSLASRLSIPTYGLQCTRAAPLDSIHSLAAYYIDCIRQVQPEGPYRVAGYSYGACVAFEMCSQLQAQQSPAPTHNSLFLFDGSPTYVLAYTQSYRAKLTPGCEAEAETEAICFFVQQFTDMEHNRVLEALLPLKGLEERVAAAVDLIIKSHQGLDRQELSFAARSFYYKLRAAEQYTPKAKYHGNVMLLRAKTGGAYGEDLGADYNLSQVCDGKVSVHVIEGDHRTLLEGSGLESIISIIHSSLAEPRVSVREG” the “soluble on expression in E. coli” value was “soluble”.
For “MNHAQSLYPLIERALLCPVLEDKLALAERLHRDWRAGMLARLASPAPYPLPEPGRPERPELVHPARVPKRSLSTRRGHGALLHAIAHIEFNAVNLALDAAWRFRDMPDEFVDDWLKVAAEEAGHFRLLQGRLAELGFSYGDFPAHDGLWAMCRKTDRDAMVRMALVPRVLEARGLDVTPGIQRRLAGIGDHASVAVLDVILRDEVGHVLIGNRWFVRLCRERGLEPQATFRGLLEQHAMQLHPGDYNLDARAAAGFFADELEALARLTESVSDGRLEHHHHHH”, the “soluble on expression in E. coli” value was “soluble”.
For “MKSQFLLSVKEHMLTRYYANKTIESYLFWIKRFIVFHQFAHPSKLSEDDVIRFLSHLAIDEKVAVKTQALALNAISFLYRDFFKTPLSLDMRFQKSLTEKKLPVVLTRDEVRRFV”, the “soluble on expression in E. coli” value was “not soluble”.
With “MNVTEITQLARDIRVATLKSLNHLGFGHYGGSMSVVETLAVLYGAVMKIDPADPDWPERDYFVLSKGHAGPALYSTLAIKGYFPREELNTLNQNGTRLPSHPDRLKTRGVDATTGSLGQGISIAGGMALSHKLARRPNRVFCIVGDGELNEGQCWEAFQFIAHHRLNNLTVFIDWNKQQLDGELEEIINPFDLEGKFRAFGFDVVTVKGDDIAGLLAVVQPVPPADAQPRVVILDSIKGQGVPCLEQLTNSHHLRLTDGMKQTLNEAIHQLEVMHD” the “soluble on expression in E. coli” value was “not soluble”.
With “MSVIIISRNQEKLDRAAKKIELNTGGKVKVIAADFTKDDIYGHITENIEGLDIGVLVNNVGILPSQIPCKLLETSDLEERIYDIVNCNVKSMVKMCRIVLPGMQQRRRGVILNVSSGIAKIPCPIYTLYAASKVFVERFSQGLQAEYISKGIIIQTVAPFGVSTAMTGHQKPDMVTFTAEEFVRSSLKYLKTGDQTYGSITHTLLGRIVQSIPTWVLQSETFQHHFQEYVKNRDRR” the “soluble on expression in E. coli” value was “not soluble”.
With “MSVVSERDVDEYSKQKPETYVLQVSERERKEKYERKNPPIPLDNEYNYQDVTPSPFPFHIDAPSLVFMGRLGEEPISAHFTLTNRTCKPFWFKIKVSSRELFKVRPTNGKLENSERVVIRVIFYPNVRVPKPFCEYLHVYALFAGLGDRTAYEAFNRLDRQRTLPPKRLFTEFVWHPNIGMTQAYENGKLMEMMRAKQKLLDYRKDENDKIKTFQVDFNNVIFDHRNRVLDRMLKANVVEKEKLLYMPTPNLNLYMQNLRNQKNRSKLAVLLERRGDAFKGVQNLYAEEVLAKRTGDKMFEKYKKKKGTKGYQSLDAKLYRPVKVVRNTKNKKKKGKK” the “soluble on expression in E. coli” value was “not soluble”.
In the case of “MAHHHHHHSLNDYTQQLQGKKDYLKTLFAGLDVPEWEVYESPDKHYRMRAEFRIWHEGGEMFYAMFEKGQKASGASMIRCDRFEAASEAVNRLMPELIAAAAQSPELKKRWYAVEFLSTLSGEMLVTMIYHKRLDAEWMQAAQALQQQLDISVIGRSRGQKIVLKQDYVTETLKVGNRDFRYRQIEGSFTQPNAAVCQKMLEWACRTAEGLGSDLLELYCGNGNFTLPLSRYFRQVLATEISKTSVSAAQWNIEANRIGNIKIARLSAEEFTEAYTGKREFKRLKDGGIALTDYAFSTIFVDPPRAGIDEETLKLVSQFDNIIYISCNPETLRANLDTLAETHAVERAALFDQFPFTHHIESGVLLKKKILEG”, the “soluble on expression in E. coli” value is reported as “soluble”.
For “MNPEEQIVTWLISLGVLESPKKTICDPEEFLKSSLKNGVVLCKLINRLMPGSVEKFCLDPQTEADCINNINDFLKGCATLQVEIFDPDDLYSGVNFSKVLSTLLAVNKATEDQLSERPCGRSSSLSAANTSQTNPQGAVSSTVSGLQRQSKTVEMTENGSHQLIVKARFNFKQTNEDELSVCKGDIIYVTRVEEGGWWEGTLNGRTGWFPSNYVREIKSSERPLSPKAVKGFETAPLTKNYYTVVLQNILDTEKEYAKELQSLLVTYLRPLQSNNNLSTVEVTSLLGNFEEVCTFQQTLCQALEECSKFPENQHKVGGCLLSLMPHFKSMYLAYCANHPSAVNVLTQHSDELEQFMENQGASSPGILILTTNLSKPFMRLEKYVTLLQELERHMEDTHPDHQDILKAIVAFKTLMGQCQDLRKRKQLELQILSEPIQAWEGEDIKNLGNVIFMSQVMVQYGACEEKEERYLMLFSNVLIMLSASPRMSGFIYQGKIPIAGTVVTRLDEIEGNDCTFEITGNTVERIVVHCNNNQDFQEWLEQLNRLIRGPASCSSLSKTSSSSCSAHSSFSSTGQPRGPLEPPQIIKPWSLSCLRPAPPLRPSAALGYKERMSYILKESSKSPKTMKKFLHKRKTERKPSEEEYVIRKSTAALEEDAQILKVIEAYCTSANFQQGHGSSTRKDSIPQVLLPEEEKLIIEETRSNGQTIMEEKSLVDTVYALKDEVRELKQENKRMKQCLEEELKSRRDLEKLVRRLLKQTDECIRGESSSKTSILP”, the “soluble on expression in E. coli” value was “soluble”.
With “MSATPPTTPAPTAAASAGKGLHSRAYNGLIKACDKYVPPKMRPLWMHPAGPKTIFFWAPIVKWSLVIAGLSDLTRPADKISPNGCLALGATNLIWTRYSLVIIPKNYSLFAVNLFVSLTQLFQLGRYYNYQWEQSRLEKNGEQCPAIEASLLEHHHHHH” the “soluble on expression in E. coli” value was “not soluble”.
For “MSLKQKLSHPYLAKHISAPKIDEDKLLLFHALFEEADIKNNDRENYIVTAMLVQSALDTHDEVTTARVIKRDENKNRQLTVLAGDYFSGLYYSLLSEMKDIYMIRTLATAIKEINEHKIRLYDRSFKDENDFFESVGIVESALFHRVAEHFNLPRWKKLSSDFFVFKRLMNGNDAFLDVIGSFIQLGKTKEEILEDCFKKAKNSIESLLPLNSPIQNILINRLKTISQDQTYHQKEGHHHHHH”, the “soluble on expression in E. coli” value was “not soluble”.
In the case of “MGSDKIHHHHHHMMKTVNELIKDINSLTSHLHEKDFLLTWEQTPDELKQVLDVAAALKALRAENISTKVFNSGLGISVFRDNSTRTRFSYASALNLLGLAQQDLDEGKSQIAHGETVRETANMISFCADAIGIRDDMYLGAGNAYMREVGAALDDGYKQGVLPQRPALVNLQCDIDHPTQSMADLAWLREHFGSLENLKGKKIAMTWAYSPSYGKPLSVPQGIIGLMTRFGMDVTLAHPEGYDLIPDVVEVAKNNAKASGGSFRQVTSMEEAFKDADIVYPKSWAPYKVMEERTELLRANDHEGLKALEKQCLAQNAQHKDWHCTEEMMELTRDGEALYMHCLPADISGVSCKEGEVTEGVFEKYRIATYKEASWKPYIIAAMILSRKYAKPGALLEQLLKEAQERVK”, the “soluble on expression in E. coli” value is reported as “not soluble”.
For “MGHHHHHHSHMKNLFLTSSFKDVVPLFTEFESNLQGKTVTFIPTASTVEEVVFYVEAGKKALEKLGLFVVELDVATESLDHIAATLRKNDFIYVTGGNTFFLLQELKRTGADKLILEEIAAGKLYIGESAGAVITSPNIAYIQSMDSPKKAEQLTNYDALNLVDFCTLPHYNNIPFKKITQKIVADYTKSLKMHPISNHEAILVRDEEVITKLANGKTD”, the “soluble on expression in E. coli” value was “soluble”.
For “MMIEGLEKMLAKGVDNALLRFGLGKGYLDAGDAERAAEHLQRCVEQDPKYSAGWKLLGKARQAAGDLAGARQAWEQGLATAATHGDKQAEKEMTVFLRKLDRART”, the “soluble on expression in E. coli” value was “not soluble”.
With “METKPYLIALDLDGTLLKDDKTISENTLHTIQRLKDDGHYVCISTGRPYRSSSMYYQQMELTTPIVNFNGAFVHHPQDDSWGRYHTSLPLDVVKQLVDISESYNVHNVLAEVIDDVYFHYHDEHLIDAFNMNTTNVTVGDLRENLGEDVTSVLIHAKEEDVPAIRSYLSDVHAEVIDHRRWAAPWHVIEIIKSGMNKAVGLQKISDYYGVPRERIIAFGDEDNDLEMLEFAGCGVAMGNGIDAVKQIANRTTATNEEDGVARFLKEYFSL” the “soluble on expression in E. coli” value was “soluble”.
In the case of “MKNAFFVTASIACGKSTFIEIANSLGFKSISADKIAHKILDENALELEKIFSPFSLKNLLKKEKKIDRKILGEIVFNNKEAKKILENFTHPKIRAKILEQMQILDKENKAFFVEIPLFFESGAYENLGKVIVIYTPKELSLKRIMQRDKLSLEAAKARLDSQIDIEEKLKKADFIIKNTNSYADFRQECVKVIQEISKGNM”, the “soluble on expression in E. coli” value is reported as “not soluble”.
